According to article PMC2765987 (2009):

B1: FLAG-tagged PP6R3 (full-length, residues 1-873) [human] / PP6 catalytic subunit, endogenous [human (endogenous in HEK293, HeLa, HepG2, Jurkat)] (parent complex)
chain 1: MFWKFDLHSSSHIDTLLEREDVTLKELMDEEDVLQECKAQNRKLIEFLLKAECLEDLVSFIIEEPPQDMDEKIRYKYPNISCELLTSDVSQMNDRLGEDESLLMKLYSFLLNDSPLNPLLASFFSKVLSILISRKPEQIVDFLKKKHDFVDLIIKHIGTSAIMDLLLRLLTCIEPPQPRQDVLNWLNEEKIIQRLVEIVHPSQEEDRHSNASQSLCEIVRLSRDQMLQIQNSTEPDPLLATLEKQEIIEQLLSNIFHKEKNESAIVSAIQILLTLLETRRPTFEGHIEICPPGMSHSACSVNKSVLEAIRGRLGSFHELLLEPPKKSVMKTTWGVLDPPVGNTRLNVIRLISSLLQTNTSSINGDLMELNSIGVILNMFFKYTWNNFLHTQVEICIALILASPFENTENATITDQDSTGDNLLLKHLFQKCQLIERILEAWEMNEKKQAEGGRRHGYMGHLTRIANCIVHSTDKGPNSALVQQLIKDLPDEVRERWETFCTSSLGETNKRNTVDLVTTCHIHSSSDDEIDFKETGFSQDSSLQQAFSDYQMQQMTSNFIDQFGFNDEKFADQDDIGNVSFDRVSDINFTLNTNESGNIALFEACCKERIQQFDDGGSDEEDIWEEKHIAFTPESQRRSSSGSTDSEESTDSEEEDGAKQDLFEPSSANTEDKMEVDLSEPPNWSANFDVPMETTHGAPLDSVGSDVWSTEEPMPTKETGWASFSEFTSSLSTKDSLRSNSPVEMETSTEPMDPLTPSAAALAVQPEAAGSVAMEASSDGEEDAESTDKVTETVMNGGMKETLSLTVDAKTETAVFKSEEGKLSTSQDAACKDAEECPETAEAKCAAPRPPSSSPEQRTGQPSAPGDTSVNGPV
chain 2: MAPLDLDKYVEIARLCKYLPENDLKRLCDYVCDLLLEESNVQPVSTPVTVCGDIHGQFYDLCELFRTGGQVPDTNYIFMGDFVDRGYYSLETFTYLLALKAKWPDRITLLRGNHESRQITQVYGFYDECQTKYGNANAWRYCTKVFDMLTVAALIDEQILCVHGGLSPDIKTLDQIRTIERNQEIPHKGAFCDLVWSDPEDVDTWAISPRGAGWLFGAKVTNEFVHINNLKLICRAHQLVHEGYKFMFDEKLVTVWSAPNYCYRCGNIASIMVFKDVNTREPKLFRAVPDSERVIPPRTTTPYFL

Variants of: B1
Test: co-immunoprecipitation (anti-FLAG) with quantitative fluorescent immunoblotting; expressed in HEK293 cells; endogenous PP6c; 3 independent experiments; parent: 100; read off a plot

| Variant | percent of parent |
| --- | --- |
| chain 1 E204K, chain 1 E205K | ~75 PP6c / FLAG (wild type = 100) |
| chain 1 D113R | ~91 PP6c / FLAG (wild type = 100) |
| chain 1 E259K, chain 1 E262K | ~64 PP6c / FLAG (wild type = 100) |
